# Data reported in patent publication US20190048060A1.
# What was measured:
# [1] = test system: ZFN SBS59488 (engineered); assay: cell_activity; details: pair with SBS59489, multiplex with TRAC and B2M ZFNs plus GFP donor, T cells
# [2] = test system: ZFN SBS68876 (engineered); assay: cell_activity; details: pair with SBS68877, human T cells
# [3] = test system: ZFN SBS68812 (engineered); assay: cell_activity; details: pair with SBS68813, multiplex with B2M and CISH ZFNs plus GFP donor, T cells
# [4] = test system: ZFN SBS59489 (engineered); assay: cell_activity; details: pair with SBS59488, multiplex with TRAC and B2M ZFNs plus GFP donor, T cells
# [5] = test system: ZFN SBS57071 (engineered); assay: cell_activity; details: pair with SBS57531, B2M ZFN only, human T cells
# [6] = test system: ZFN SBS53853 (engineered); assay: cell_activity; details: pair with SBS55266, TCRA ZFN only, human T cells
# [7] = test system: ZFN SBS57531 (engineered); assay: cell_activity; details: pair with SBS57071, B2M ZFN only, human T cells
# [8] = target: human CD19 (human) (UniProt P15391); assay: cell-based or functional assay
substance,measurement,setting,value
GGAAGGCCCCAGCAGGCAAGGGCTGCAT (double strand) [CISH site 59488],activity,[1],98 % knockout
CTCCTGAAAGTGGCCGGGTTTAATCTGC (double strand) [TCRA site 68812/68876],activity (% knockout (CD3 loss)),[2],97
same,activity,[3],93 % knockout
GAGGAGGTGGCAGAGGGTACCCCAGCCC (double strand) [CISH site 59489],activity,[4],98 % knockout
GCCACGGAGCGAGACATCTCGGCCCGAA (double strand) [B2M site 57071],activity,[5],86.6 % indels
AACAGGTAAGACAGGGGTCTAGCCTGGG (double strand) [TCRA site 53853],activity,[6],88.3 % indels
GAGTAGCGCGAGCACAGCTAAGGCCACG (double strand) [B2M site 57531],activity,[7],86.6 % indels
FMC63-CD8BBZ (CD19 CAR) (from UniProt P01732 138-206; Q07011 214-255; P20963 52-164),CD19+ K562 cells remaining after co-culture with CAR T cells at effector:target 2:1 (CAR inserted at the B2M gene),[8],0.4%
same,CD19+ K562 cells remaining after co-culture with CAR T cells at effector:target 2:1 (CAR inserted at the TCRA gene),[8],0.1%
